Assay results: patent US20180155451A1 (published 2018)

T1: FcγRIIa R (human, UniProt P12318 34-217)
T1 construct: extracellular domain; Soluble extracellular domain with C-terminal His tag, expressed in FreeStyle293 cells; also called FcgRIIa R; FcγRIIa type R; not shown: His tag attached to the C terminus
T1 sequence (looked up): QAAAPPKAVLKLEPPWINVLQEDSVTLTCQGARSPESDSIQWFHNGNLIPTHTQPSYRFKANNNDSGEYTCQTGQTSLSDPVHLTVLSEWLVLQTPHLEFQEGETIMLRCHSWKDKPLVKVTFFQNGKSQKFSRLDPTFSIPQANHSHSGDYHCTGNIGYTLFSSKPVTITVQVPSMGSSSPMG

T2: FcγRIIb (human, UniProt P31994 43-217)
T2 construct: extracellular domain; also called FcgRIIb
T2 sequence (looked up): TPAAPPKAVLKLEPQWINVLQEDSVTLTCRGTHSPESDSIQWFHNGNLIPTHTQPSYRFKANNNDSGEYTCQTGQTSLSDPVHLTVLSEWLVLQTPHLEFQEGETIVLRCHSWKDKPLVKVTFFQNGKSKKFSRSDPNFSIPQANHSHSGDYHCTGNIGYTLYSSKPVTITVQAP

T3: FcγRIIa R (human, UniProt P12318 34-217)
T3 construct: extracellular domain; also called FcgRIIa R; FcγRIIa type R
T3 sequence (looked up): T1 sequence (looked up)

B1: GpH7-B3 variant T335_15Y/GpL16-k0 (antibody, human IgG1, kappa)
heavy: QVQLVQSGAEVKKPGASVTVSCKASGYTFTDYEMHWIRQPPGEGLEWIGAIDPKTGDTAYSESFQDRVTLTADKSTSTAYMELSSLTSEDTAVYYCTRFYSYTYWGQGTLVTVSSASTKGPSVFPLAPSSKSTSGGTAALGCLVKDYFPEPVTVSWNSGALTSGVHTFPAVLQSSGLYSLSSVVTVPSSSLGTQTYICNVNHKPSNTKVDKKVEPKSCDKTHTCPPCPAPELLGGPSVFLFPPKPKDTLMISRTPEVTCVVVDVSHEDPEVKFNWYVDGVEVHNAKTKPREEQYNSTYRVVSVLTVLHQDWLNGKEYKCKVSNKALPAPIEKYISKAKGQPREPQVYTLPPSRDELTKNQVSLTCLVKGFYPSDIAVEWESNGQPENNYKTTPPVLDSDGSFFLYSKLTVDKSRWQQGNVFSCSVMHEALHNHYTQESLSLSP
light: DIVMTQSPLSLPVTPGEPASISCQASESLVHSNRNTYLHWYLQKPGQSPQLLIYKVSNRFSGVPDRFSGSGSGTDFTLKISRVEAEDVGVYYCSQNTHVPPTFGQGTKVEIERTVAAPSVFIFPPSDEQLKSGTASVVCLLNNFYPREAKVQWKVDNALQSGNSQESVTEQDSKDSTYSLSSTLTLSKADYEKHKVYACEVTHQGLSSPVTKSFNRGEC
notes: homodimerized; mutation in both H chains; also called Ho Ab
B2: GpH7-B3 variant K326_19Q/GpL16-k0 (antibody, human IgG1, kappa)
heavy: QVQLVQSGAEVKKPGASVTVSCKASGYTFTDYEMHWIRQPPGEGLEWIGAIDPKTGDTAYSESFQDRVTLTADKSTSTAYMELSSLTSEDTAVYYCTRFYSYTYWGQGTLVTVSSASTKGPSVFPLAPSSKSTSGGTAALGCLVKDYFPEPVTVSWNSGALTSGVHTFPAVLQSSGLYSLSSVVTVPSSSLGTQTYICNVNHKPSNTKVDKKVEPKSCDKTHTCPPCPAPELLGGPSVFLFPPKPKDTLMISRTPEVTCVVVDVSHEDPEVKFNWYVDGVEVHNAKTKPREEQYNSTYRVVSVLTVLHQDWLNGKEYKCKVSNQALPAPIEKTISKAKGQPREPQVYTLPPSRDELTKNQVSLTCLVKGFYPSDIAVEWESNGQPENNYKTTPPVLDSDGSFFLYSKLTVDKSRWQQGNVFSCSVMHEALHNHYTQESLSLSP
light: B1 light
notes: as for B1
B3: GpH7-B3 variant H268_18N/GpL16-k0 (antibody, human IgG1, kappa)
heavy: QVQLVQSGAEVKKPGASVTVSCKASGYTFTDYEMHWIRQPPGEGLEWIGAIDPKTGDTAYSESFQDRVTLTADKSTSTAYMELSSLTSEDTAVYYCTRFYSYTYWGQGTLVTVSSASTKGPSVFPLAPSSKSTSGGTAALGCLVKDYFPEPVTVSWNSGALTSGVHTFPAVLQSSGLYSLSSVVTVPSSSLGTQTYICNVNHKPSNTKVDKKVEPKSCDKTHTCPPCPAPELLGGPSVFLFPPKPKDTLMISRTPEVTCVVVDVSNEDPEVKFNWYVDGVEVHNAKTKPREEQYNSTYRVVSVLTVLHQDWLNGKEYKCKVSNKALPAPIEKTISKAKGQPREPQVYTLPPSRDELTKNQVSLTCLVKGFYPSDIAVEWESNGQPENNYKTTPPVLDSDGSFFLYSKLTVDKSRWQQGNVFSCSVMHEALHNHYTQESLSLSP
light: B1 light
notes: as for B1
B4: GpH7-B3 variant H268_10E/GpL16-k0 (antibody, human IgG1, kappa)
heavy: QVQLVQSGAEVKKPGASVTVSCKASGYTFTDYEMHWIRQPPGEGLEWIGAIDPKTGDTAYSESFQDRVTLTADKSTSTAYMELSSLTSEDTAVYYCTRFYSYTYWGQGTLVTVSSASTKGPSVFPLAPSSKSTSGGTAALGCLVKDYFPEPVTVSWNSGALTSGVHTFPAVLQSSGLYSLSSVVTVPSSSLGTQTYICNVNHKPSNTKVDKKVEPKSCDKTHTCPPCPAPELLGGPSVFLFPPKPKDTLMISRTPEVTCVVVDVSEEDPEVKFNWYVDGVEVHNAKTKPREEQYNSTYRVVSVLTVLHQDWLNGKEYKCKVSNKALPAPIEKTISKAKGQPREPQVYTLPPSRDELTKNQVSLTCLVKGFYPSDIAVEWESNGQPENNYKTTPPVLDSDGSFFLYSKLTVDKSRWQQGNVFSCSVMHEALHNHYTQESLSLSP
light: B1 light
notes: as for B1
B5: GpH7-B3 variant G236_09D/GpL16-k0 (antibody, human IgG1, kappa)
heavy: not shown
light: B1 light
notes: as for B1
B6: GpH7-B3 variant I332_09D/GpL16-k0 (antibody, human IgG1, kappa)
heavy: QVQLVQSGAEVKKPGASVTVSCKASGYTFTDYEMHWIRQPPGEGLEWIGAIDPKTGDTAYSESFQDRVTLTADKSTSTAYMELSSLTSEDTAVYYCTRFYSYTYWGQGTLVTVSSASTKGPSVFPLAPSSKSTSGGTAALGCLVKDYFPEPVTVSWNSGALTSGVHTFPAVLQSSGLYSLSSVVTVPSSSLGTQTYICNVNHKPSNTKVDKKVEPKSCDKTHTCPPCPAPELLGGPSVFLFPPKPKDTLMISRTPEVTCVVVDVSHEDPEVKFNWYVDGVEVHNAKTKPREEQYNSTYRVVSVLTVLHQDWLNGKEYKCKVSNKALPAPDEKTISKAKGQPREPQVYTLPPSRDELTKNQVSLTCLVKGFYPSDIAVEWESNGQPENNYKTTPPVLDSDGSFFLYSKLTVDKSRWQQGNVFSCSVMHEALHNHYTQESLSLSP
light: B1 light
notes: as for B1
B7: GpH7-B3 variant H268_13S/GpL16-k0 (antibody, human IgG1, kappa)
heavy: not shown
light: B1 light
notes: as for B1
B8: GpH7-B3 variant K326_09D/GpL16-k0 (antibody, human IgG1, kappa)
heavy: not shown
light: B1 light
notes: as for B1
B9: GpH7-B3 variant K326_06M/GpL16-k0 (antibody, human IgG1, kappa)
heavy: not shown
light: B1 light
notes: as for B1
B10: GpH7-B3 variant I332_15Y/GpL16-k0 (antibody, human IgG1, kappa)
heavy: not shown
light: B1 light
notes: as for B1
B11: GpH7-B3 variant G236_10E/GpL16-k0 (antibody, human IgG1, kappa)
heavy: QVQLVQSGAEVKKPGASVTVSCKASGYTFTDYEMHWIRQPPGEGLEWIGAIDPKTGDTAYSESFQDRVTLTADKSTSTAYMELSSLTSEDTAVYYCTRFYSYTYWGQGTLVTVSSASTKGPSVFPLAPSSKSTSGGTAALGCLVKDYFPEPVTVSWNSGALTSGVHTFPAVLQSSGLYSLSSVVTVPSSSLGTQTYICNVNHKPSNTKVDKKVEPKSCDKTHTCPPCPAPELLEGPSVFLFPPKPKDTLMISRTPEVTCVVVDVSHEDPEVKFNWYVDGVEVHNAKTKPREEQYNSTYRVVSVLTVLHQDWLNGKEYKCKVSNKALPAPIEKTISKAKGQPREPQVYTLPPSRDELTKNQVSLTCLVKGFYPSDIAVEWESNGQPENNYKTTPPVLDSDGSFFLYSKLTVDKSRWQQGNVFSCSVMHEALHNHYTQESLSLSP
light: B1 light
notes: as for B1
B12: GpH7-B3 variant K326_10E/GpL16-k0 (antibody, human IgG1, kappa)
heavy: not shown
light: B1 light
notes: as for B1
B13: GpH7-B3 variant H268_09D/GpL16-k0 (antibody, human IgG1, kappa)
heavy: not shown
light: B1 light
notes: as for B1
B14: GpH7-B3 variant K326_14T/GpL16-k0 (antibody, human IgG1, kappa)
heavy: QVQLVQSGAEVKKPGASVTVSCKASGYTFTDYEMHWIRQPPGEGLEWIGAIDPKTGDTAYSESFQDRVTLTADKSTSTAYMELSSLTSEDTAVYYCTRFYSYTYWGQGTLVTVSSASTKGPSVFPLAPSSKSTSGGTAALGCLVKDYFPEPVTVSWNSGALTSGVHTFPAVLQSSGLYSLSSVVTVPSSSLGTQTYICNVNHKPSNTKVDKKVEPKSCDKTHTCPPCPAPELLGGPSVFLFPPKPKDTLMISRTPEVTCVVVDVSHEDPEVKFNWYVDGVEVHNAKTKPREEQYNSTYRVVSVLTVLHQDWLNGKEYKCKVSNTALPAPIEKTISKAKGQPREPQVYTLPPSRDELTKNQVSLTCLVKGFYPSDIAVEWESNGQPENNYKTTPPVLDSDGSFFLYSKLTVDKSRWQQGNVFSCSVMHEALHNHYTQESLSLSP
light: B1 light
notes: as for B1
B15: GpH7-B3 variant K326_16H/GpL16-k0 (antibody, human IgG1, kappa)
heavy: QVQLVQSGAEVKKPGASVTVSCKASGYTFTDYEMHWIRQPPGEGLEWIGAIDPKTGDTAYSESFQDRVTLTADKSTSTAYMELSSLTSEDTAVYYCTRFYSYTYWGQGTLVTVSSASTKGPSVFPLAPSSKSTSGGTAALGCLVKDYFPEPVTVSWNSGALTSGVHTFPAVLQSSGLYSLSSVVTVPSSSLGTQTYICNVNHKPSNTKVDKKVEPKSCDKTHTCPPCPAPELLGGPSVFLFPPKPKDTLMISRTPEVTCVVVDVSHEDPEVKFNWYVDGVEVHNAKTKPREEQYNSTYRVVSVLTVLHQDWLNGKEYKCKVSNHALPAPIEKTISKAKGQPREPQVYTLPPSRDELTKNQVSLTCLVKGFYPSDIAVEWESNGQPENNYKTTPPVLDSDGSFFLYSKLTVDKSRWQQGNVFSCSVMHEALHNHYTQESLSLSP
light: B1 light
notes: as for B1
B16: GpH7-B3 variant I332_04F/GpL16-k0 (antibody, human IgG1, kappa)
heavy: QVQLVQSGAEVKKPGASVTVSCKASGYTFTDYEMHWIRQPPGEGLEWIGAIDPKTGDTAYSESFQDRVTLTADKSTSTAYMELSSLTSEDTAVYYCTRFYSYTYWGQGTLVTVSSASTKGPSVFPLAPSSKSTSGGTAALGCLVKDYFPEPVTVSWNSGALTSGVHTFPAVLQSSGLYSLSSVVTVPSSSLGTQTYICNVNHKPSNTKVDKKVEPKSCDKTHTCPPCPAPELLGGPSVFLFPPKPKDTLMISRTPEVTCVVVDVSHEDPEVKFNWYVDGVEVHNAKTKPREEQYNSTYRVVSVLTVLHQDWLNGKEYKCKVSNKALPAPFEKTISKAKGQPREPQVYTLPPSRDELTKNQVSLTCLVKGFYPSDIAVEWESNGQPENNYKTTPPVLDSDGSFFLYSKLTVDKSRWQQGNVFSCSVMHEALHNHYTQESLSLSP
light: B1 light
notes: as for B1
B17: GpH7-B3 variant I332_10E/GpL16-k0 (antibody, human IgG1, kappa)
heavy: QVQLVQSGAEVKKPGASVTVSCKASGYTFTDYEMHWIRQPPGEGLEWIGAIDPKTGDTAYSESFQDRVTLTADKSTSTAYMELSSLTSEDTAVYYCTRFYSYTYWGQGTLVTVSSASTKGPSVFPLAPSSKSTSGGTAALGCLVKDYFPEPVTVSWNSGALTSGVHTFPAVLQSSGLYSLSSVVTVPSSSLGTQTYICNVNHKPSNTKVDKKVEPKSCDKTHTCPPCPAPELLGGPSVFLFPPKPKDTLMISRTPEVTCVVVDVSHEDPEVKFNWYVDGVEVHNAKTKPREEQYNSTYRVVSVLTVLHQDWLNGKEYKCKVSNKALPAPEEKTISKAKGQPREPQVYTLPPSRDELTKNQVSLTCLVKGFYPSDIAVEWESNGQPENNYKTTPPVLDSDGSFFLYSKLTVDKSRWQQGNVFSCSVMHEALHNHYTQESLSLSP
light: B1 light
notes: homodimerized; mutation in both H chains; also called Ho Ab; GpH7-B3-22-10E/GpL16-k0
B18: GpH7-B3 variant K334_07I/GpL16-k0 (antibody, human IgG1, kappa)
heavy: not shown
light: B1 light
notes: as for B1
B19: GpH7-B3 variant K334_03V/GpL16-k0 (antibody, human IgG1, kappa)
heavy: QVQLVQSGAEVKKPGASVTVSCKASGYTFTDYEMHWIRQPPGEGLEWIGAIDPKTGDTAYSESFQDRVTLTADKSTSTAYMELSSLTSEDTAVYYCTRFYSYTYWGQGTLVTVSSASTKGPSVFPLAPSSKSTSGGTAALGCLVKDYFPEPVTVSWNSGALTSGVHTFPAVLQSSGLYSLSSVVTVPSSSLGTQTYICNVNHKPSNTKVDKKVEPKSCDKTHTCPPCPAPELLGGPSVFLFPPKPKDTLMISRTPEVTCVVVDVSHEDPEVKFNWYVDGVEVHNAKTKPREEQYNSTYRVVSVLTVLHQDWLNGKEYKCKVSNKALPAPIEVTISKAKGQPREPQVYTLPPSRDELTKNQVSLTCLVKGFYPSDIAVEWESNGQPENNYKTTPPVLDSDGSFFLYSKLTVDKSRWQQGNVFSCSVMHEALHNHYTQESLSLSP
light: B1 light
notes: as for B1
B20: GpH7-A5/GpH7-B3 variant P329_10E/GpL16-k0 (antibody, human IgG1, kappa)
heavy 1: not shown
heavy 2: not shown
light: B1 light
notes: He Ab; IgG1; mutation in one H chain only; also called GpH7-A5/GpH7-B15/GpL16-k0
B21: GpH7-A5/GpH7-B3 variant Y300_18N/GpL16-k0 (antibody, human IgG1, kappa)
heavy 1: not shown
heavy 2: not shown
light: B1 light
notes: He Ab; IgG1; mutation in one H chain only
B22: GpH7-A5/GpH7-B3 variant S298_20W/GpL16-k0 (antibody, human IgG1, kappa)
heavy 1: not shown
heavy 2: not shown
light: B1 light
notes: as for B21
B23: GpH7-A5/GpH7-B3 variant S298_15Y/GpL16-k0 (antibody, human IgG1, kappa)
heavy 1: not shown
heavy 2: not shown
light: B1 light
notes: as for B21
B24: GpH7-A5/GpH7-B3 variant S298_16H/GpL16-k0 (antibody, human IgG1, kappa)
heavy 1: not shown
heavy 2: not shown
light: B1 light
notes: as for B21
B25: GpH7-A5/GpH7-B3 variant P329_16H/GpL16-k0 (antibody, human IgG1, kappa)
heavy 1: not shown
heavy 2: not shown
light: B1 light
notes: as for B21
B26: GpH7-A5/GpH7-B3 variant P329_13S/GpL16-k0 (antibody, human IgG1, kappa)
heavy 1: not shown
heavy 2: not shown
light: B1 light
notes: as for B21
B27: GpH7-A5/GpH7-B3 variant P329_15Y/GpL16-k0 (antibody, human IgG1, kappa)
heavy 1: not shown
heavy 2: not shown
light: B1 light
notes: as for B21
B28: GpH7-A5/GpH7-B3 variant Y300_05P/GpL16-k0 (antibody, human IgG1, kappa)
heavy 1: not shown
heavy 2: not shown
light: B1 light
notes: as for B21
B29: GpH7-A5/GpH7-B3 variant S298_18N/GpL16-k0 (antibody, human IgG1, kappa)
heavy 1: not shown
heavy 2: not shown
light: B1 light
notes: as for B21
B30: GpH7-A5/GpH7-B3 variant S298_19Q/GpL16-k0 (antibody, human IgG1, kappa)
heavy 1: not shown
heavy 2: not shown
light: B1 light
notes: as for B21
B31: GpH7-A5/GpH7-B3 variant P331_01G/GpL16-k0 (antibody, human IgG1, kappa)
heavy 1: not shown
heavy 2: not shown
light: B1 light
notes: as for B21
B32: GpH7-A5/GpH7-B3 variant S298_10E/GpL16-k0 (antibody, human IgG1, kappa)
heavy 1: not shown
heavy 2: not shown
light: B1 light
notes: as for B21
B33: GpH7-A5/GpH7-B3 variant P329_19Q/GpL16-k0 (antibody, human IgG1, kappa)
heavy 1: not shown
heavy 2: not shown
light: B1 light
notes: as for B21
B34: GpH7-A5/GpH7-B3 variant P329_12R/GpL16-k0 (antibody, human IgG1, kappa)
heavy 1: not shown
heavy 2: not shown
light: B1 light
notes: He Ab; IgG1; mutation in one H chain only; also called GpH7-A5/GpH7-B12/GpL16-k0
B35: GpH7-A5/GpH7-B3 variant S298_11K/GpL16-k0 (antibody, human IgG1, kappa)
heavy 1: not shown
heavy 2: not shown
light: B1 light
notes: as for B21
B36: GpH7-A5/GpH7-B3 variant P329_18N/GpL16-k0 (antibody, human IgG1, kappa)
heavy 1: not shown
heavy 2: not shown
light: B1 light
notes: as for B21
B37: GpH7-A5/GpH7-B3 variant P329_11K/GpL16-k0 (antibody, human IgG1, kappa)
heavy 1: not shown
heavy 2: not shown
light: B1 light
notes: He Ab; IgG1; mutation in one H chain only; also called GpH7-A5/GpH7-B13/GpL16-k0
B38: GpH7-A5/GpH7-B3 variant S298_14T/GpL16-k0 (antibody, human IgG1, kappa)
heavy 1: not shown
heavy 2: not shown
light: B1 light
notes: as for B21
B39: GpH7-A5/GpH7-B3 variant Y300_12R/GpL16-k0 (antibody, human IgG1, kappa)
heavy 1: not shown
heavy 2: not shown
light: B1 light
notes: as for B21
B40: GpH7-A5/GpH7-B3 variant P329_14T/GpL16-k0 (antibody, human IgG1, kappa)
heavy 1: not shown
heavy 2: not shown
light: B1 light
notes: as for B21
B41: GpH7-A5/GpH7-B3 variant S298_12R/GpL16-k0 (antibody, human IgG1, kappa)
heavy 1: not shown
heavy 2: not shown
light: B1 light
notes: as for B21

Target: T1, FcγRIIa R
Assay: SPR (Biacore), antibody captured via antigen peptide, FcγRIIa R as analyte; homodimerized antibody
Protocol: Analysis of interaction between objective antibody and the FcγR was carried out using Biacore T100 (GE Healthcare). HBS-EP+ (GE Healthcare) was used as the running buffer, and the measurement temperature was set to 25° C. Chips produced by immobilizing the antigen peptide by the amine coupling method to a Series S Sencor Chip CM5 (GE Healthcare), or alternatively, chips produced by allowing preliminarily biotinylated antigen peptides to interact with and immobilize onto a Series S Sensor Chip SA (certified) (GE Healthcare) were used. Antibodies of interest were captured onto an antigen peptide-immobilized chip, and allowed to interact to each FcγR diluted with running buffer. To regenerate and repeatedly use the chip, the antibodies captured on the chip were washed off by reacting 10 mM glycine-HCl, pH 1.5.

Row | Ho/Con_2aR | Binder
1 | 107 % of control (GpH7-B3/GpL16-k0 = 100) | B1
2 | 137 % of control (GpH7-B3/GpL16-k0 = 100) | B2
3 | 134 % of control (GpH7-B3/GpL16-k0 = 100) | B3
4 | 154 % of control (GpH7-B3/GpL16-k0 = 100) | B4
5 | 107 % of control (GpH7-B3/GpL16-k0 = 100) | B5
6 | 127 % of control (GpH7-B3/GpL16-k0 = 100) | B6
7 | 135 % of control (GpH7-B3/GpL16-k0 = 100) | B7
8 | 158 % of control (GpH7-B3/GpL16-k0 = 100) | B8
9 | 143 % of control (GpH7-B3/GpL16-k0 = 100) | B9
10 | 111 % of control (GpH7-B3/GpL16-k0 = 100) | B10
11 | 140 % of control (GpH7-B3/GpL16-k0 = 100) | B11
12 | 156 % of control (GpH7-B3/GpL16-k0 = 100) | B12
13 | 157 % of control (GpH7-B3/GpL16-k0 = 100) | B13
14 | 141 % of control (GpH7-B3/GpL16-k0 = 100) | B14
15 | 123 % of control (GpH7-B3/GpL16-k0 = 100) | B15
16 | 109 % of control (GpH7-B3/GpL16-k0 = 100) | B16
17 | 123 % of control (GpH7-B3/GpL16-k0 = 100) | B17
18 | 121 % of control (GpH7-B3/GpL16-k0 = 100) | B18
19 | 123 % of control (GpH7-B3/GpL16-k0 = 100) | B19

Target: T2, FcγRIIb
Assay: SPR (Biacore), captured antibody, FcγR analyte; binding relative to GpH7-A5/GpH7-B3/GpL16-k0 = 100

Row | He/Con_2b (IIb binding) | Binder
20 | 52.7 control=100 | B20
21 | 82.7 control=100 | B21
22 | 41.1 control=100 | B22
23 | 61.4 control=100 | B23
24 | 63.5 control=100 | B24
25 | 39.1 control=100 | B25
26 | 41 control=100 | B26
27 | 45.7 control=100 | B27
28 | 7.3 control=100 | B28
29 | 48.1 control=100 | B29
30 | 73.3 control=100 | B30
31 | 45.4 control=100 | B31
32 | 47.6 control=100 | B32
33 | 30.7 control=100 | B33
34 | 17.6 control=100 | B34
35 | 61.3 control=100 | B35
36 | 40.4 control=100 | B36
37 | 16.9 control=100 | B37
38 | 77.9 control=100 | B38
39 | 41.2 control=100 | B39
40 | 37.9 control=100 | B40
41 | 57.8 control=100 | B41

Target: T3, FcγRIIa R
Assay: as above

Row | He/Con_2aR (IIaR binding) | Binder
42 | 64.8 control=100 | B20
43 | 100 control=100 | B21
44 | 55.4 control=100 | B22
45 | 79.1 control=100 | B23
46 | 88.5 control=100 | B24
47 | 56.7 control=100 | B25
48 | 61.5 control=100 | B26
49 | 67.9 control=100 | B27
50 | 10.8 control=100 | B28
51 | 68 control=100 | B29
52 | 95 control=100 | B30
53 | 61 control=100 | B31
54 | 65.1 control=100 | B32
55 | 41.1 control=100 | B33
56 | 29.3 control=100 | B34
57 | 95.1 control=100 | B35
58 | 61.2 control=100 | B36
59 | 30.2 control=100 | B37
60 | 98.5 control=100 | B38
61 | 55.1 control=100 | B39
62 | 57.3 control=100 | B40
63 | 85.3 control=100 | B41

Target: T3, FcγRIIa R
Assay: He/Con_2aR divided by He/Con_2b (FcγRIIa R over FcγRIIb); SPR (Biacore)

Row | IIaR/IIb (He_2aR/2b) | Binder
64 | 1.23 ratio | B20
65 | 1.21 ratio | B21
66 | 1.35 ratio | B22
67 | 1.29 ratio | B23
68 | 1.39 ratio | B24
69 | 1.45 ratio | B25
70 | 1.5 ratio | B26
71 | 1.49 ratio | B27
72 | 1.47 ratio | B28
73 | 1.41 ratio | B29
74 | 1.3 ratio | B30
75 | 1.34 ratio | B31
76 | 1.37 ratio | B32
77 | 1.34 ratio | B33
78 | 1.66 ratio | B34
79 | 1.55 ratio | B35
80 | 1.51 ratio | B36
81 | 1.79 ratio | B37
82 | 1.26 ratio | B38
83 | 1.34 ratio | B39
84 | 1.51 ratio | B40
85 | 1.48 ratio | B41
